Measurements as given in patent publication US10005838B2, “Milk fat globule epidermal growth factor 8 regulates fatty acid uptake” (REGENTS OF THE UNIVERSITY OF CALIFORNIA, priority 2013, dated 2018).

How the values were obtained:
[1] = Olive oil gavage, serum triglycerides; assay type: in vivo, mouse
Procedure: 6-8 week-old mice were fasted for 4 hours and then gavaged with 15 μL olive oil per gram body weight. Mice had access to water but not food for the remainder of the experiment. In the experiments in FIGS. 3C and 3F, 50 μg/kg body weight of recombinant protein was mixed into olive oil and administered immediately to mice by gavage. In blocking antibody experiments, integrins αv (clone RMV-7) and 05 (clone ALULA) were administered by gavaging mice with 100 μL water containing 0.5 μg antibody per gram body weight 30 minutes before olive oil gavage. Triglyceride content of serum was assayed using a commercially available kit (Sigma-Aldrich) and fatty acid concentrations were quantified by Wako (Rabot, S. et al., FASEB J 24, 4948-4959 (2010)).

cardiac myocytes = test: Fatty acid uptake in primary cardiac myocytes; assay type: cell-based, mouse
primary mouse adipocytes = test: Fluorescent fatty acid uptake assay in primary mouse adipocytes; assay type: cell-based
Procedure: Uptake of fatty acids by differentiated 3T3-L1 adipocytes or primary mouse adipocytes was assessed using a QBT Fatty Acid Uptake Kit (Molecular Devices). Cells were plated in triplicate in 96-well plates at a concentration of 25,000 cells per well in 100 μl of DMEM/10% FCS. Plates were centrifuged at 1000 rpm for 4 minutes and incubated at 37° Celsius for 4-5 hours. Cells were then serum deprived for 1 hour before treatment with recombinant proteins for 30 minutes followed by the addition of QBT Fatty Acid Uptake solution. In experiments using function-blocking antibodies, antibodies against mouse integrins αv (clone RMV-7) (Takahashi, K. et al., J Immunol 145, 4371-4379 (1990)) β3 (clone 2C9.G2; BD Biosciences) (Ashkar, S. et al., Science 287, 860-864 (2000)), β5 (clone ALULA) (Su, G. et al., American journal of respiratory cell and molecular biology 36, 377-386 (2007)), 131 (clone HA2/5; BD Biosciences, anti-rat with cross-reactivity with mouse (Zovein, A. C. et al., Developmental cell 18, 39-51 (2010)), CD36 (clone MF3; Abcam) (Helming, L. et al., Journal of cell science 122, 453-459 (2009)), human integrins αv (clone L230) (Thomas, G. J. et al., British journal of cancer 87, 859-867 (2002)), β3 (clone Axum-2) (Su, G. et al., Am J Respir Crit Care Med 185, 58-66 (2012)), β5 (clone ALULA), β1 (clone P5D2), cycloRGD and cycloRAD (BACHEM) were added to cells after serum deprivation and cells were incubated for 20 minutes at 4° Celsius prior to addition of recombinant proteins. Plates were incubated in a fluorescent plate reader at 37° Celsius and kinetic readings were acquired every 20 seconds for 30 minutes. Fluorescence values were plotted against time and data was expressed as relative fluorescent units per minutes×10^3.
Primary mouse adipocytes were obtained from epididymal fat pads by collagenase digestion in Krebs-HEPES (KRBH) buffer followed by filtering through a 100 μm strainer which was then washed with an additional 7.5 mL KRBH buffer. Adipocytes were allowed to float to the top of the mixture for 5 minutes, and the solution under the adipocyte layer was removed with a syringe. The adipocytes were washed with 10 mL KRBH and again allowed to float to the surface, at which point the solution was again removed. This process was repeated for a total of 3 washes. After the last aspiration, adipocytes were resuspended in 0.5-1.0 mL and counted.
Primary mouse adipocyte progenitors from the vascular stromal fraction were isolated and cultured as reported previously (Tseng et al., 2008). In brief, subcutaneous white adipose tissue was removed, minced and digested with 1 mg/ml collagenase for 45 min at 37° C. in DMEM/F12 medium containing 1% BSA and antibiotics. Digested tissues were filtered through sterile 150 μm nylon mesh and centrifuged at 250 g for 5 min. […]

antral smooth muscle = test: Force of antral smooth muscle ring contraction; design: species or system mouse; details: addition of rMfge8
AKT = test: Western blot, AKT phosphorylation in HepG2 cells; assay type: cell-based, human
Procedure: (§1) Following tissue preparation and SDS-PAGE, membranes were incubated with a polyclonal antibody against Akt (Cell Signaling Technology), or Rictor (Cell Signaling); Anti-PGC1 alpha antibody (abcam); a monoclonal antibody against Phospho-Akt Ser473 (Cell Signaling), Phospho-Rictor Thr1135 (Cell Signaling), GAPDH (Cell Signaling), or Mfge8 (R&D Systems). For evaluation of total AKT and total Rictor, membranes that been blotted for phospho-AKT and phospho-Rictor were stripped and reprobed. Plasma membrane and post-plasma membrane fractions were isolated as previously described (Nishiumi, S. & Ashida, H., Biosci Biotechnol Biochem 71, 2343-2346 (2007)).

CD36 = test: Plasma membrane CD36 expression in primary cells; assay type: cell-based, mouse; details: primary Mfge8−/− adipocytes, hepatocytes, and enterocytes; to WT levels
Procedure: as §1

FATP1 = test: Plasma membrane FATP1 expression in primary adipocytes; assay type: cell-based, mouse; details: Mfge8−/− adipocytes
Procedure: as §1

PTEN = PTEN activity assay (conversion of PIP3 to PIP2) in freshly isolated antrum; assay type: biochemical, mouse; details: 10 μg/ml
Procedure: In FIG. 14A, the antral rings were treated for 15 min with PI3K inhibitor wortmannin (Wort.100 nm) followed by assessment of contractile force in response to MCh. N=3-4. ***P<0.0001. […] Western blot of antral tissue were treated for 30 minutes with or without rMfge8. […] Western blot of antrum were treated for 30 minutes with wortmannin (100 ng/ml) or Mfge8 and then with MCh for 15 minutes prior to quantifying active RhoA using a GST pull-down. […] PTEN activity assay measured the conversion of PIP3 to PIP2 in freshly isolated antrum with and without the rMfge8 or RGE construct (10 μg/ml) n=3-5. *P<0.05, **P<0.01, ***P<0.001.

B1: rMfge8: recombinant Milk Fat Globule Epidermal Growth Factor 8, an integrin ligand, expressed in High 5 cells (protein)
chain: ASGDFCDSSLCLNGGTCLTGQDNDIYCLCPEGFTGLVCNETERGPCSPNPCYNDAKCLVTLDTQRGDIFTEYICQCPVGYSGIHCETETNYYNLDGEYMFTTAVPNTAVPTPAPTPDLSNNLASRCSTQLGMEGGAIADSQISASSVYMGFMGLQRWGPELARLYRTGIVNAWTASNYDSKPWIQVNLLRKMRVSGVMTQGASRAGRAEYLKTFKVAYSLDGRKFEFIQDESGGDKEFLGNLDNNSLKVNMFNPTLEAQYIKLYPVSCHRGCTLRFELLGCELHGCSEPLGLKNNTIPDSQMSASSSYKTWNLRAFGWYPHLGRLDNQGKINAWTAQSNSAKEWLQVDLGTQRQVTGIITQGARDFGHIQYVASYKVAHSDDGVQWTVYEEQGSSKVFQGNLDNNSHKKNIFEKPFMARYVRVLPVSWHNRITLRLELLGC
serum triglyceride levels after olive oil gavage ([1]; Mfge8−/− mice, 50 μg/kg recombinant protein mixed into olive oil): significantly raised | WT serum triglyceride levels after olive oil gavage ([1]; WT mice, recombinant protein mixed into olive oil): significantly increased | fatty acid uptake in Mfge8−/− cardiac myocytes (cardiac myocytes): rescued | fatty acid uptake in CD36−/− adipocytes (primary mouse adipocytes; CD36−/− adipocytes): did not significantly increase | fatty acid uptake in FATP1−/− adipocytes (primary mouse adipocytes; FATP1−/− adipocytes): did not significantly increase | fatty acid uptake in Mfge8−/− adipocytes (primary mouse adipocytes; Mfge8−/− primary adipocytes and differentiated adipocyte progenitors): rescued | WT fatty acid uptake (primary mouse adipocytes; WT adipocytes): significantly increased | smooth muscle contraction of stomach strips from Mfge8 KO mice (antral smooth muscle): rescued | phosphorylation of AKT (AKT): induced | membrane expression of CD36 (CD36): increased | membrane expression of FATP1 (FATP1): increased | PTEN activity (PTEN): modulates
